Here are results for 1 molecule from patent publication US20240261333A1 (published 2024).

Assay in all cases: co-IP, anti-FLAG, N-FLAG B3GNT2 cell lysate, mass spectrometry
One assay has as its target T1, EIF4G1 (UniProt Q04637-3 1-1559, limits assumed).
T1 construct: also called NP_001278086.1
The procedure: (§1) Cells were plated in 10-cm cell culture dishes and grown to 60-80% confluency. For each condition, two biological replicates were harvested for co-IP. Cells were washed with PBS and 4 mL of lysis buffer (20 mM HEPES, 1% Triton X-100, 150 mM NaCl, 1 mM EDTA, and 10% glycerol) containing protease inhibitor cocktail was added. Cells were scraped and lysate was incubated at 4° C. under rotary agitation for 1 h. Lysate was centrifuged at 14,000×g for 10 min at 4° C. Supernatant was transferred to a new tube and an aliquot was taken as the input. […] For Western blots, 10 μg/mL Chicken Anti-FLAG (Aves labs ET-DY100) and IgY control (R&D Systems AB-101-C) antibodies were biotinylated (Thermo Fisher Scientific 90407) and added to the respective conditions. Lysates with antibodies were incubated at 4° C. under rotary agitation overnight. For each mL of lysate, 50 μL of Pierce Protein A/G Magnetic Beads (Mass spectrometry; Thermo Fisher Scientific 88803) or Pierce Streptavidin Magnetic Beads (Western blot; Thermo Fisher Scientific 88817) was washed twice with lysis buffer. Lysates with antibodies were added to the beads and incubated at 4° C. under rotary agitation for 4 h. Beads were washed with lysis buffer 3 times and resuspended in lysis buffer for storage.
(§2) Magnetic beads were resuspended in 100 mM Tris pH 7.8, reduced, alkylated and digested with trypsin at 37° ° C. overnight. This solution was subjected to solid phase extraction to concentrate the peptides and remove unwanted reagents followed by injection onto a Shimadzu HPLC with fraction collector. Eight fractions were collected and after concentration were injected on a Waters NanoAcquity HPLC equipped with a self-packed Aeris 3 μm C18 analytical column 0.075 mm by 20 cm, (Phenomenex). Peptides were eluted using standard reverse-phase gradients. The effluent from the column was analyzed using a Thermo Orbitrap Elite mass spectrometer (nanospray configuration) operated in a data dependent manner for 54 minutes. The resulting fragmentation spectra were correlated against the known database using Proteome Discover 1.4 (Thermo Fisher Scientific).

Another assay addresses T2, HSPB1 (UniProt P04792 1-205).
T2 construct: also called NP_001531.1
The procedure: as §1, §2

The target of a further assay is RPL5 (UniProt P46777 2-297). The procedure: as §1, §2

T1 sequence (Q04637 41-1599 limits assumed): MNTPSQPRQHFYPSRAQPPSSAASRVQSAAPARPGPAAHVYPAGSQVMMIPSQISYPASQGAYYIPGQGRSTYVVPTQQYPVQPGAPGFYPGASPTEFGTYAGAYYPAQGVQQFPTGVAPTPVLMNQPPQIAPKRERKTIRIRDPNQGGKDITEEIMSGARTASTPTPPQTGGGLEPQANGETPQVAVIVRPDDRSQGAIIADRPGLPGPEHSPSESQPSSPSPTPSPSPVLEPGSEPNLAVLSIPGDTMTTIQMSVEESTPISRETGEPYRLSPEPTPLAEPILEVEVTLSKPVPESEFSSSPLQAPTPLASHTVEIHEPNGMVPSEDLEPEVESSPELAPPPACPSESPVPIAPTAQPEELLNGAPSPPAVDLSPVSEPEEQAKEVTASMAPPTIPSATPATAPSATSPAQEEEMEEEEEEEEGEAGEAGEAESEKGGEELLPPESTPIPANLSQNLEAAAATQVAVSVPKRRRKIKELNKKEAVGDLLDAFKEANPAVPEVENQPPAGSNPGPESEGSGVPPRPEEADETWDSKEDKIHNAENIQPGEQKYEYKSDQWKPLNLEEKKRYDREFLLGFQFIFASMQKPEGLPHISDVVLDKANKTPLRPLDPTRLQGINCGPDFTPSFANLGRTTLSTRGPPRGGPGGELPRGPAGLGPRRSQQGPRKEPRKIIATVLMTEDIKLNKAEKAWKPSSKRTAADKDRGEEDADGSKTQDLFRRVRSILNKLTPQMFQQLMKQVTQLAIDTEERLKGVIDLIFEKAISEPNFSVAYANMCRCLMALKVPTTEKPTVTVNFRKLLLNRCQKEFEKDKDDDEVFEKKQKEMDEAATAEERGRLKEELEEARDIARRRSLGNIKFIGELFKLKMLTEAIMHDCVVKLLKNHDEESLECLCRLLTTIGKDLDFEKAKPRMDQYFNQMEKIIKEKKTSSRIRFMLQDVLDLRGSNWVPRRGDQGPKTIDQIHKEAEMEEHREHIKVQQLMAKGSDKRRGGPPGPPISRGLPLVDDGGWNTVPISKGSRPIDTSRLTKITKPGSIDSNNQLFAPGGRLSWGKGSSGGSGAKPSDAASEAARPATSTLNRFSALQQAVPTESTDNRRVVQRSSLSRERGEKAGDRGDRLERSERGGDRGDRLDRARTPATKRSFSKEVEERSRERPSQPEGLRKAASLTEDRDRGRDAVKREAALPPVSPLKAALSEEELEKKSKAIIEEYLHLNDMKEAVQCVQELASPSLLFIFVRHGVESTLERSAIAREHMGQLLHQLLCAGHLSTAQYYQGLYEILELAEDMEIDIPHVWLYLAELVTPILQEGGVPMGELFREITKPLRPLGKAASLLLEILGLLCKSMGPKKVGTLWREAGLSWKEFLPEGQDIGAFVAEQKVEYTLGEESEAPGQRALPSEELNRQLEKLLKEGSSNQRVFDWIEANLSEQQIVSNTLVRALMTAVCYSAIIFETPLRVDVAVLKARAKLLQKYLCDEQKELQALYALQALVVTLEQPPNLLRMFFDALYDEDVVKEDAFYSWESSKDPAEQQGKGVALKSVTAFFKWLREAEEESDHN
T2 sequence (P04792 whole entry): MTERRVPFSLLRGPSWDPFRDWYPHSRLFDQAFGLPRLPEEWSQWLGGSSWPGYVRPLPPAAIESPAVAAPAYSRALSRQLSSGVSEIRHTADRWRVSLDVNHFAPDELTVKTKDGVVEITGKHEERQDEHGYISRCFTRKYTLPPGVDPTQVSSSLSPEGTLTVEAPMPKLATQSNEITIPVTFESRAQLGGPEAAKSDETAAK

B1: N-terminal FLAG tagged B3GNT2 (enzyme, human, UniProt Q9NY97 1-397, looked up)
chain: MSVGRRRIKLLGILMMANVFIYFIMEVSKSSSQEKNGKGEVIIPKEKFWKISTPPEAYWNREQEKLNRQYNPILSMLTNQTGEAGRLSNISHLNYCEPDLRVTSVVTGFNNLPDRFKDFLLYLRCRNYSLLIDQPDKCAKKPFLLLAIKSLTPHFARRQAIRESWGQESNAGNQTVVRVFLLGQTPPEDNHPDLSDMLKFESEKHQDILMWNYRDTFFNLSLKEVLFLRWVSTSCPDTEFVFKGDDDVFVNTHHILNYLNSLSKTKAKDLFIGDVIHNAGPHRDKKLKYYIPEVVYSGLYPPYAGGGGFLYSGHLALRLYHITDQVHLYPIDDVYTGMCLQKLGLVPEKHKGFRTFDIEEKNKNNICSYVDLMLVHSRKPQEMIDIWSQLQSAHLKC
notes: Bait of the co-IP; pulled down with mouse anti-FLAG from cell lysate; also called N-FLAG B3GNT2; N-term FLAG; not shown: FLAG tag at the N-terminus
In the case of B1, the “co-IP mass spectrometry count” value with EIF4G1 came out at 2; with HSPB1, 3; with RPL5, 0.
